Test results taken from the DeepSol protein solubility set.

Test: soluble on expression in E. coli; label from the status in PepcDB or PDB records

Sequence	soluble on expression in E. coli
MGSDKIHHHHHHMRRKIPSSASLQAFDAAARHGNFARAAEELSLTEGAISRQIARLEALLNCKLFDRMGSRVKLNPVGAHYAHHVRETLDRLERDTQYIMGMPEGSKSLDIAVLPTFSNRWLIPRLSGFNSLFPDITLNIAARTDPFILPGSGFDAVIHFEHSAWTGMRMQFLFQENLLPVCNPALLTNNDVNRQLNELPRIHRRQNPEAWHHYARESGIRLDNPAQGVRYDLHEMTIAAVIAGHGVALVPRMYVENELSCGMLVSPWPASDCLSKKFCLVKPMETGINEDALESFERWLLAEMNTLTSLNAER	not soluble
MGSDKIHHHHHHMRRVSIYELDPGMIVARAIFNSEERVLLHAGVELNEKYIHGLQKAGVMSVYIRDELFDESDAVSDIISEKTRLKAIRTLKESFNLLEKKHQLNLHAVKNTVDEIIDEIIANPNTLVSLTDIRSFDDYTYAHSVNVGVLSIMSGVSLNYERSQLKELGVGALLHDIGKIKIDKNILNKPDDLSPEEFTEIKQHSKAGFDILRQHSGLSLLSAHIAFQHHERWDGQGYPRQLSGEEIHEYARIVAVADVYDALVADRPYRPAYSVTQAISILKRMTGLFLDPQCVKAFLNNIAVYPLGCLLELNTGELGAVIDINRKTPAQPVVRVLYDRNWRLLTPYELDLSKNSALVVKNVLSERQIKELKKNL	not soluble
MGSDKIHHHHHHMRTDMTIEQNKNRRSAASGCAIHCHDCSMGTLCIPFTLNANELDQLDDIIERKKPIQKGEQIFKSGDPLKSLFAIRSGTIKSYTITEQGDEQITGFHLAGDVIGFDGIHAQSHQSFAQALETSMVCEIPFNILDELSGTMPKLRQQIMRLMSNEIMSDQEMILLLSKKNAEERLAAFISNLANRFGNRGFSAKEFRLTMTRGDIGNYLGLTVETISRLLGRFQKSGLIEVKGKYIIIVDHHELNLLAGNARIAR	not soluble
MGSDKIHHHHHHMRTHGWNSTCVNRPSGSANSRRLVAHGNGWQTIDMDFAARYVALGDSFTEGVGDDDPARPNGVRGWADRVAEQLGAADPAFGYANLAIRGRKLRQIMAEQVDAAIELKPTLVTIYAGANDILRPKVDIDDLLAEYDAGIRKLSATGATVVMFTGFDARGSKVFGTMRGRTAIYNELVRGIAGDHGALLVDYWRFSEYYDWGMWAKDRMHMSAAGHANMAKRVLTVLEHDHSIDVPPMTPVPELSRADAIRANARWVREFAGPWVVRRVTGKSSGDGLQPRYSQLTRL	not soluble
MGSDKIHHHHHHMRVNSTDLQNAFGKYLSLLEKEDIIITKNGRSVAKLLRYNEPDYFLVHEESKNYKTTKRISYEEYMDLVDSSDQRYELIDGENYLLATPSFKHQVVVNEISGHFYNYFRGKSCRSLTSPFDVRLFGFATKFEEDPNVVQPDVVVICDLDKINEANKYEGIPSLIVEVLSPSTKGKDMVMKLNLYMKSGVLEYWVVDMESKSILQYSFSPERDIDSLKSLGEEDTIESSAFAGLKILLGEIFAEI	not soluble
MGSDKIHHHHHHMRYQNTYAQLDTRLYHEQLPNPLDNPRAGHFNNQVADQLGWTKAADLMARWVEILGGQYVPAEFQPLSMAYAGHQFGQWAGQLGDGRGLLMTQVLDKNNQLQDLHLKGAGLTPYSRMGDGRAVLRSTIREYLCGHALTQLGIASSNALGFVVSDTKVRRERLEAGAALMRVADSHIRLGHVEWIASFAPDLLAEFTDYMIDTYYPECRDSEKPVLAFLQAVVERTARMIADWQLIGFAHGVMNTDNLSITGSTLDFGPFGFMERFNPAWINNHSDHSGRYAYQNQPAIGHWNLNVWLPHFMRLTQAGVTRETLADCLAPYEATFMQHYQQGLCRKLGLPHQRESLSLAFEWLTLLEDNLLDYTNSFRALLGLIAPNEHLYEQQLLATMTAELNPEAQQVWQVWSTRYLAQIQQVSITQAIEEMQASNPIYILRNSMAQRVIVAAEQGQFEELNRVFDLLAKPYTLQDSAIELDTLPPAPHAPQMPISCSS	not soluble
MGSDKIHHHHHHMSAELNQPVPRPGILDIAAYVPGKEHVDGVAKVYKLSSNETPLGPSPKAIEAFSAAASHLEIYPDGQAIALRQAIADVHGLNIANILCGNGSDELLGLLCHVYLGAGDEAIITEHGFLVYKIQIMGAGATPVTVKEKDCVVDVDAILAAVTPKTKMVFLANPGNPTGTYVPVAEIRRLQAGLPKHVVLVLDAAYAEYVRKNDYEAGLELVSGNRNVVMTRTFSKVYGLAALRVGWMYAPVDIIDALNRVRGPFNMSAPAIAAGAAAIRDQAFVQKAVAHNALWMEKLVTTFTGLGLTVTPSVANFILIHFPDQDGKRATDADEFLSRRGYILRAVRGYGFPNALRMTVGSEEANLGVIAALTEFMGQA	not soluble
MGSDKIHHHHHHMSAPTPLAEASQIPTIPALSPLTAKQSKGNFFSSNPISSFVVDTYKQLHSHRQSLELVNPGTVENLNKEVSRDVFLSQYFFTGLRADLNKAFSMNPAFQTSHTFSIGSQALPKYAFSALFANDNLFAQGNIDNDLSVSGRLNYGWDKKNISKVNLQISDGQPTMCQLEQDYQASDFSVNVKTLNPSFSEKGEFTGVAVASFLQSVTPQLALGLETLYSRTDGSAPGDAGVSYLTRYVSKKQDWIFSGQLQANGALIASLWRKVAQNVEAGIETTLQAGMVPITDPLMGTPIGIQPTVEGSTTIGAKYEYRQSVYRGTLDSNGKVACFLERKVLPTLSVLFCGEIDHFKNDTKIGCGLQFETAGNQELLMLQQGLDADGNPLQALPQL	not soluble
MGSDKIHHHHHHMSASLQTADRVRRWRIEGELTTRTPLHMGSGSFEARQELRRAPQTDDIAKAKAVLLDSDQRPCLTGSGLKGAMLAWANAYLPDPERDRLLFGCEPDGDGKGQGGRLEFQTAFLSQNKENTSPSSSPTPFWMSDRRTDVDTGVRINRASGTALDKHLFYKEVVAPGTAFRMVLDLDLPACCTDKGHALVNRVLALLEAFNLSDDDRVPPLTLGAMTGRGHGRFAWRLTNLSRVTDASARTWIDKGAPGTWAAALTPVPDKGPWQTTAKATLEVVQSPATLVCEVTLTFDHRFLISEPARVVTEDEARTRSGKTRTAGIMPKVDGKGNAVLPTASIKGVLRSRAERILATLTGDASAFEHAPGRGPAGQDNPAADMMTDRCLPTSRLFGAASWRAALDVEPFRPLSGHTTVAHQELVAIDRFTGGVSGSAKYDIDAFHRPQFKGRLRLNLRRSRLEDVGLLVLLLRDLAEGDLSFGYGGTKGYGGTQAMVTVQVRGTTAGTQALPLPEETGGAGIDTPVSWSSIQDSALASPLREAVAAFRRLYCKGEAV	not soluble
MGSDKIHHHHHHMSCSHEHESLLVTSPNKSAQAVADALEKHPITFSLPQQFYSDADVFQVEMEQIFYKEWLFVGITGEIPDNGNFITLDIGDNPITVIRDQNGEVRAFHNTCRHRGSKICLVKQGKVPKLVCPYHQWTYELDGNLLFAGTEMGDDFDKNDYGLHKVNCRVAGGYIFVSLSENPTNIDGFFDDLTHYLEPYDLDNCKVAVESTLIEDANWKLVIENNRECYHCSGNHPELLNTLLEWDDTEDPRASDEFKAQVAAKQAMWEAEGIPYKHVSHGHGLRNRIVRMPLLEGTVSMTIDGKAGCKKLMGRIKNPDLGSMRILHLPNSWSHAMGDHLIAFQVIPLGAQKTQVTTKWIVHKDAVEGVDYDVAQLRQVWDATNVQDRTLAENNQKGINSKAYQPGPYSTTFEFGVVNFIDWFSHTMQSNIKASAEKS	not soluble
MGSDKIHHHHHHMSDDTIDRFFGYLNWLFNPFHGLKTTEVYDLIGTSSLTENALYLNLGYWRKADTIDEASEALALLVAKRGGMGPGDIVLDCGYGFGDQDILWARQLKPEKIIGLNITSSQVERARKRVADAGLEQSIDLREGSATAMPIENESIDLVVSVESAFHYRTREAFFREAFRVLRPGGRLVTADIVPTENSGNPFRRMEQWFSWNLVAGKFNIPQENYYLIPSYQNKLTKAGFVQIDIKSIRDDVYEPLHAYLAKNRTFFAKMHPLARIMAQLTLNRSAESVYAGLDYILSYAEKP	not soluble
MGSDKIHHHHHHMSDKHYDALPKAHTTYANIVKSLLPIGNNGKISRDELPQATYFVDDLHIDQNNLNDYRKICGFADNGNVPITYFSVLSQALQMNMMVKEPFPFAMLGLVHVDNSVTQYRAIGEIETVAMSVMFDNLRDHAQGQQFDFVTTVKSADEIIWEGTSTYLSRSKKPATSKDKKSTPRPVTVKPSINKEGVHSIFEVPEDIGRRYAFVSGDFNLIHLHPLSARAFGFPKAIAHGMWSKAKCLAMMGELPDACTVEVSFKLPIFLPSEVELITDPLAQLSSTEDTCQFGLFSAKNDKPHLAGVIALRDENK	not soluble
MGSDKIHHHHHHMSDLKVLVIGYMHPRNDKRVFRTVQALSKRSEVIYQYWTEKEELPFKENNIRYIPVKCSNRGNIFQKAVKRKQVDEKIRHLVETEDYDILYMHHFPATKPLKPFVVAKKRGKKIVYDIHEYHPQNFLSTLPRPLSDLKGFVMWRIFKKQLQLSDLCIFVSEETRNDVVAKTGLDPEKTFIVPNYASMKIEPDPDKKKMEIVLVGKTPRNLIHEKKLIRALVERGFSFRIIGMDSEAFSDVPHTYTSFLPYEKMMEELSKSMFSLISYKPTGKEDKNYLYSLPHKFYDSIAAGTPVIVKNSFVSMAKMVEDLGIGVVIDPANVEESLKRIENACQRYEEILENIRRHQEGFVWDEKKEEEFLERVMG	not soluble
MGSDKIHHHHHHMSDRKEDLERQINLTFAFLSANSYSRKFLTQVWIRDNVGDYKGLTDTAFRKKLQRDLAYLRRVGVPIEQFTVTSGIAEGQQAYRLAQDSYKLPEVEFTPDEAAVLGMAGEMGHNQELGAFARSGWTKLAAGGAQRDLSTSTALTNAGDLGSLSAKTLDAIIKARQLGKQISFEYRRAPKDAPSLRHMDPWGLVPERDRIYLVGFDLDRQEARTFRITRVRNINLGADATHPMPAGTNLQDMVRAQLRRKSVLIDATLRITPGRAVELRAAGVETSDGAWFLEDVDRDWLVRTAAAHAPEALVIEPKDVIDDVIALLRKVENEVV	not soluble
MGSDKIHHHHHHMSDRLPPLTALRAFDAAARHMSFAKAADELSVTPAALSFQIKSLEEHLGAPLFRRLNRAVELTEAGAALAPGVDEGFQALSAAWRQARRVLDTTSLTVTAGPALTAKWLAPRLYEFARSHPDIDLRLSAGLKMVDLRRDHVDVAIRFGYSVDDYLVAQAARPEWLTPVMTPELCAKYPTPQSLRDAPLIYDDSIGFLSPSCDWPTWFRAMGLEFTPGHGTHFSHADHAIDAACAGLGVALGRRPMIIKDVQEGRLVAPFKVAIETDAKFHFLCLPSSQDRPQIRAFREWFFSEIEKTAHMWDDFTIIPVKDL	not soluble
MGSDKIHHHHHHMSDSEKEILKRIKDNPFISQRELAEAIGLSRPSVANIISGLIQKEYVMGKAYVLNEDYPIVCIGAANVDRKFYVHKDLVAETSNPVTSTRSIGGVARNIAENLGRLGETVAFLSASGQDSEWEMIKRLSTPFMNLDHVQQFENASTGSYTALISKEGDMTYGLADMEVFDYITPEFLIKRSHLLKKAKCIIVDLNLGKEALNFLCAYTTKHQIKLVITTVSSPKMKNMPDSLHAIDWIITNKDETETYLNLKIESTDDLKIAAKRWNDLGVKNVIVTNGVKELIYRSGEEEIIKSVMPSNSVKDVTGAGDSFCAAVVYSWLNGMSTEDILIAGMVNAKKTIETKYTVRQNLDQQQLYHDMEDYKNGKFTKVY	not soluble
MGSDKIHHHHHHMSDVMNNSQIATQDNNLINELKTLIASAKQQAQVQVNAQMTLLYWQLGHRLQEHLLSNQRADYAKQIVKQVAQQLTYEYGKGFNEKSLRKMMQFYQAFPQQEIVSTLSRQLSWSHFVELLPIKAPVAREFYLQMAINDRWSVRTLRNRIDSMLFERTAVSKKPDELIKLELAQLENKQLSANMILKDPYMLDFLGVQDHYFEKDLEDAILRDLQQFLLELGSGFSFIGRQHRVQIGYYDFYIDLLFYNRKLKRLVAIDLKLGNFKAAYKGQMELYLRYLAKYEQEADERPPLGIILCASKDQEQVELLELDKSGIHVAEYLTALPPKEVLQQKLHQAISQNQQRFLAVNALDKDAGIASDAEEK	not soluble
